Results reported in publication PMC3623637.

Key:
[1] = substrate: Cc1cc(=O)oc2cc(NC(=O)[C@@H](N)CCC(=O)O)ccc12; experiment: purified protein; details: 50 mM Tris-HCl pH 7.5, 37°C
[2] = substrate: Cc1cc(=O)oc2cc(NC(=O)[C@@H](N)CC(=O)O)ccc12; experiment: purified protein; details: 50 mM Tris-HCl pH 7.5, 37°C

B1: DNPP-1 (Caenorhabditis elegans) (protein)
chain: MAAALKPSAPEIRKAAQEFINYLNKAVTPFHATQEVKDRLLQAGFTELPESGHWDIQPTSKYFVTKNRSAILAFAVGGSYKPGSGFSIVVGHTDSPCLRVKPISHQKSDKFLQVGVSTYGGGIWRTWFDRDLSVAGLVIVKNGEKLQHKLIDVKKPVLFIPNLAIHLETDRTTFKPNTETELRPILETFAAAGINAPQKPESTGFADPRNITNNHHPQFLGLIAKEAGCQPEDIVDLDLYLYDTNKAAIVGMEDEFISGARLDNQVGTYTAISGLLESLTGESFKNDPQIRIAACFDNEEVGSDSAMGASSSFTEFVLRRLSAGGSTTAFEEAIGKSMLISADQAHATHPNYSAKHEENHRPAFHGGVVVKVNVNQRYATTSTTHAALKQVAFEAQVPLQVVVVRNDSPCGSTVGPILATKLGLQTVDVGCPQLAMHSIREFADTSSIYQATTLYSTFYERLSTVLSNMQ
[1]
  kcat/Km: 15300 M⁻¹ s⁻¹
[2]
  Km: 13.58 10^-3 mM
  kcat/Km: 10300 M⁻¹ s⁻¹
